Four molecules from patent US20170081379A1 can be followed below.

Experiment [1] deals with recombinant HDM2 17-125 (human) (UniProt Q00987). The experiment is described as follows: fluorescence polarization, FITC-labeled peptide with HDM2 17-125. (Fluorescence polarisation rises when a labelled molecule tumbles more slowly, as on binding a larger partner.)
The target is the same in experiment [2]. In words: fluorescence polarization, FITC-peptide with titrated HDM2 17-125; the concentration is that of hDM2.

Bridge positions count the residues as written; N and C are the ends. Square brackets hold non-standard residues; d marks the D form. Ends that are not written are not given here. R8 = C=CCCCCCC[C@@](C)(N)C(=O)O; S5 = C=CCCC[C@](C)(N)C(=O)O

Chain of recombinant HDM2 17-125 (human) (Q00987 17-125 limits assumed): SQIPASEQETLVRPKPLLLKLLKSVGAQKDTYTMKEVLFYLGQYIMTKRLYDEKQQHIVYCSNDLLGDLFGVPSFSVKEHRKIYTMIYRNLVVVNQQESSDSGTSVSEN

As to LSQETF[R8]DLWKLL[S5]EN-NH2 (peptide, from a related filing, staple 7-14; not fully specified (N-terminus)) [FITC-SAH-p53-4], the Kd (as a rule, the equilibrium constant for the complex coming apart) in experiment [1] was 0.92 nM. Same read-out and setting: as for QSQQTF[R8]NLWKLL[S5]QN-NH2 (peptide, from a related filing, staple 7-14; not fully specified (N-terminus)) [FITC-SAH-p53-7], the figure is 50 nM. LSQETF[R8]NLWKLL[S5]QN-NH2 (peptide, from a related filing, staple 7-14; not fully specified (N-terminus)) [FITC-SAH-p53-5]: the Kd in experiment [1] came to 0.8 nM. In addition, the EC50 (read off the curve) (as a rule, the concentration that produces a half-maximal response) in experiment [2] came out at 0.8 nM. Consider LSQQTF[R8]NLWRLL[S5]QN-NH2 (peptide, from a related filing, staple 7-14; not fully specified (N-terminus)) [FITC-SAH-p53-6], for which, in experiment [1], the Kd is 56 nM.
